Key:
[1] = molecular target: LS4 (Archaeoglobus fulgidus scaffold, laboratory-evolved) (UniProt O29494); experiment: SPR; details: SPR: 10 mM HEPES pH 7.4, 150 mM NaCl, 1 mM MgCl2, 0.05% P20, 0.25 mM TCEP, 0.1 mg/ml BSA, 25 ug/ml yeast tRNA, 25 C; EMSA: 10 mM HEPES-KOH pH 7.5, 140 mM KCl …
[2] = molecular target: T1, LS12 E34S (Archaeoglobus fulgidus scaffold, laboratory-evolved) (UniProt O29494); experiment: SPR; details: SPR: 10 mM HEPES pH 7.4, 150 mM NaCl, 1 mM MgCl2, 0.05% P20, 0.25 mM TCEP, 0.1 mg/ml BSA, 25 ug/ml yeast tRNA, 25 C, EMSA: 10 mM HEPES-KOH pH 7.5, 140 mM KCl …
T1 sequence: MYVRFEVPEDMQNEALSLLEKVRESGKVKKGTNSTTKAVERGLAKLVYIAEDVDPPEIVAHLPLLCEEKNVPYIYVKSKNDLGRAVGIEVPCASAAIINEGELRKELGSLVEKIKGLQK

[3] = molecular target: T1, LS12 E34S (Archaeoglobus fulgidus scaffold, laboratory-evolved); experiment: EMSA; details: titration regime; SPR: 10 mM HEPES pH 7.4, 150 mM NaCl, 1 mM MgCl2, 0.05% P20, 0.25 mM TCEP, 0.1 mg/ml BSA, 25 ug/ml yeast tRNA, 25 C; EMSA: 10 mM HEPES-KOH pH 7.5, 140 mM KCl …
[4] = molecular target: LS4 (Archaeoglobus fulgidus scaffold, laboratory-evolved) (UniProt O29494); experiment: EMSA; details: titration regime; SPR: 10 mM HEPES pH 7.4, 150 mM NaCl, 1 mM MgCl2, 0.05% P20, 0.25 mM TCEP, 0.1 mg/ml BSA, 25 ug/ml yeast tRNA, 25 C; EMSA: 10 mM HEPES-KOH pH 7.5, 140 mM KCl …

Sequence | Kd [1] | Kd [2] | also measured
GGCAGAGAAAGGCCAUACAAUCAUUGGCCUUGUGAGGCCGUGUGUCUUCCAGUGGCAUCGACGAAAGACACAGAACG [LS4-1] | 0.0736 nM | – | –
GGUGGCAUAGAAAGGCGAAAGCCUUGUGUGGCCAUCAAAUCGACGAAAGACACAGAACG [CS1-M2] | 2.21 nM | – | Kd ([2]; N.D. in Table S4): > 1000 nM
GGAUGCAGAGAACGAAAGUUCCAUGACGCAUCCAAAUCGACGAAAGACACAGAACG [CS2] | 114 nM | 0.00724 nM | –
AGAGGCAGAGAAGGAAACUUCCAUGACGCCUCU [Cy5-CS2] | – | – | Kd [3]: < 0.5 nM
AGAGGCAGAGAAAGGGAAACCUUGUGAGGCCUCU [Cy5-CS1] | – | – | Kd [4]: < 0.5 nM
GGCAGAGAAAGGCCAUACAAUCAUUGGCUUUUCCAUGACGCCAGUUCCAGUGGCAUCGACGAAAGACACAGAACG [LS12-1] | – | 0.0105 nM | –
GGUGGCAAAGAAAGGCGAAAGCCUUGUGAGGCCAUCAAAUCGACGAAAGACACAGAACG [CS1-M2b] | 0.0865 nM | – | Kd fold change relative to LS4 (fold higher Kd than LS4) [2]: 1270
GGUGGCUGAGAAAGGCGAAAGCCUUGUGAUGCCAUCAAAUCGACGAAAGACACAGAACG [CS1-M1] | 0.171 nM | – | Kd ([2]; equilibrium analysis): 7.7 nM
GGAUCGCGUGAUCCGAAAGGUGACGAUCCAAAUCGACGAAAGACACAGAACG [Box C/D Kt (Kt_SPR)] | 599 nM | 14.5 nM | –
GGAUGCAGAGAACGAAAGUUCCAUUACGCAUCCAAAUCGACGAAAGACACAGAACG [CS2-M3] | – | 6.02 nM | –
GGUGGCAGAGAAAGGCGAAAGCCUUGUGAGGCCAUCAAAUCGACGAAAGACACAGAACG [CS1] | 0.00682 nM | – | Kd ([2]; equilibrium analysis): 27.5 nM

— PMC8789040
